Reference: the supplement of paper PMC11246515
± gives the standard deviation of the averaged measurements.

Test: total protein half-life in vivo (active degradation + dilution); higher = more stable protein
[1] = E. coli NCM3722 delta-clpP, growth: N-lim chemostat, doubling time 6 h
[2] = E. coli NCM3722 delta-hslV, growth: N-lim chemostat, doubling time 6 h
[3] = wild type E. coli NCM3722, growth: C-lim chemostat, doubling time 3 h
[4] = wild type E. coli NCM3722, growth: C-lim chemostat, doubling time 6 h
[5] = wild type E. coli NCM3722, growth: P-lim chemostat, doubling time 6 h
[6] = wild type E. coli NCM3722, growth: P-lim chemostat, doubling time 12 h
[7] = E. coli NCM3722 delta-clpP delta-lon delta-hslV, growth: N-lim chemostat, doubling time 6 h
[8] = E. coli NCM3722 delta-lon, growth: N-lim chemostat, doubling time 6 h
[9] = E. coli NCM3722 delta-smpB, growth: N-lim chemostat, doubling time 6 h
[10] = wild type E. coli NCM3722, growth: C-lim chemostat, doubling time 12 h
[11] = wild type E. coli NCM3722, growth: N-lim chemostat, doubling time 6 h
[12] = wild type E. coli NCM3722, growth: N-lim chemostat, doubling time 12 h

Sequence	total protein half-life in vivo [1] [h]	total protein half-life in vivo [2] [h]	total protein half-life in vivo [3] [h]	total protein half-life in vivo [4] [h]	total protein half-life in vivo [5] [h]	total protein half-life in vivo [6] [h]	total protein half-life in vivo [7] [h]	total protein half-life in vivo [8] [h]	total protein half-life in vivo [9] [h]	total protein half-life in vivo [10] [h]	total protein half-life in vivo [11] [h]	total protein half-life in vivo [12] [h]
MIKLSEKGVFLASNNEIIAEEHFTGEIKKEEAKKGTIAWSILSSHNTSGNMDKLKIKFDSLASHDITFVGIVQTAKASGMERFPLPYVLTNCHNSLCAVGGTINGDDHVFGLSAAQRYGGIFVPPHIAVIHQYMREMMAGGGKMILGSDSHTRYGALGTMAVGEGGGELVKQLLNDTWDIDYPGVVAVHLTGKPAPYVGPQDVALAIIGAVFKNGYVKNKVMEFVGPGVSALSTDFRNSVDVMTTETTCLSSVWQTDEEVHNWLALHGRGQDYCQLNPQPMAYYDGCISVDLSAIKPMIALPFHPSNVYEIDTLNQNLTDILREIEIESERVAHGKAKLSLLDKVENGRLKVQQGIIAGCSGGNYENVIAAANALRGQSCGNDTFSLAVYPSSQPVFMDLAKKGVVADLIGAGAIIRTAFCGPCFGAGDTPINNGLSIRHTTRNFPNREGSKPANGQMSAVALMDARSIAATAANGGYLTSASELDCWDNVPEYAFDVTPYKNRVYQGFVKGATQQPLIYGPNIKDWPELGALTDNIVLKVCSKILDEVTTTDELIPSGETSSYRSNPIGLAEFTLSRRDPGYVSRSKATAELENQRLAGNVSELTEVFARIKQIAGQEHIDPLQTEIGSMVYAVKPGDGSAREQAASCQRVIGGLANIAEEYATKRYRSNVINWGMLPLQMAEVPTFEVGDYIYIPGIKAALDNPGTTFKGYVIHEDAPVTEITLYMESLTAEEREIIKAGSLINFNKNRQM	5.63	6.45	1.12	1.87 ± 0.76	2.37	1.31 ± 0.42						
MDTKKIFKHIPWVILGIIGAFCLAVVALRRGEHISALWIVVASVSVYLVAYRYYSLYIAQKVMKLDPTRATPAVINNDGLNYVPTNRYVLFGHHFAAIAGAGPLVGPVLAAQMGYLPGTLWLLAGVVLAGAVQDFMVLFISSRRNGASLGEMIKEEMGPVPGTIALFGCFLIMIIILAVLALIVVKALAESPWGVFTVCSTVPIALFMGIYMRFIRPGRVGEVSVIGIVLLVASIYFGGVIAHDPYWGPALTFKDTTITFALIGYAFVSALLPVWLILAPRDYLATFLKIGVIVGLALGIVVLNPELKMPAMTQYIDGTGPLWKGALFPFLFITIACGAVSGFHALISSGTTPKLLANETDARFIGYGAMLMESFVAIMALVAASIIEPGLYFAMNTPPAGLGITMPNLHEMGGENAPIIMAQLKDVTAHAAATVSSWGFVISPEQILQTAKDIGEPSVLNRAGGAPTLAVGIAHVFHKVLPMADMGFWYHFGILFEALFILTALDAGTRSGRFMLQDLLGNFIPFLKKTDSLVAGIIGTAGCVGLWGYLLYQGVVDPLGGVKSLWPLFGISNQMLAAVALVLGTVVLIKMKRTQYIWVTVVPAVWLLICTTWALGLKLFSTNPQMEGFFYMASQYKEKIANGTDLTAQQIANMNHIVVNNYTNAGLSILFLIVVYSIIFYGFKTWLAVRNSDKRTDKETPYVPIPEGGVKISSHH		4.43	> 4	4.24	5.57 ± 0.48	8.62 ± 0.6	5.48 ± 0.6	4.19 ± 0.26	5.39 ± 0.18	6.86	5.42 ± 2.2	9.16 ± 0.46
MSVQQIDWDLALIQKYNYSGPRYTSYPTALEFSEDFGEQAFLQAVARYPERPLSLYVHIPFCHKLCYFCGCNKIVTRQQHKADQYLDALEQEIVHRAPLFAGRHVSQLHWGGGTPTYLNKAQISRLMKLLRENFQFNADAEISIEVDPREIELDVLDHLRAEGFNRLSMGVQDFNKEVQRLVNREQDEEFIFALLNHAREIGFTSTNIDLIYGLPKQTPESFAFTLKRVAELNPDRLSVFNYAHLPTIFAAQRKIKDADLPSPQQKLDILQETIAFLTQSGYQFIGMDHFARPDDELAVAQREGVLHRNFQGYTTQGDTDLLGMGVSAISMIGDCYAQNQKELKQYYQQVDEQGNALWRGIALTRDDCIRRDVIKSLICNFRLDYAPIEKQWDLHFADYFAEDLKLLAPLAKDGLVDVDEKGIQVTAKGRLLIRNICMCFDTYLRQKARMQQFSRVI	3.9 ± 0.13	3.36 ± 0.42	2.55 ± 0.33	4.23 ± 0.08	4.23 ± 0.068	7.23 ± 0.7	4.79 ± 0.99	3.22 ± 0.1	2.98 ± 0.056	6.14 ± 0.71	2.99 ± 0.12	4.64 ± 0.16
MTIRSYKNLNLVRANIETESRQFIENKNYSIQSIGPMPGSRAGLRVVFTRPGVNLATVDIFYNGDGSTTIQYLTGANRSLGQELADHLFETINPAEFEQVNMVLQGFVETSVLPVLELSADESHIEFREHSRNAHTVVWKIISTSYQDELTVSLHITTGKLQIQGRPLSCYRVFTFNLAALLDLQGLEKVLIRQEDGKANIVQQEVARTYLQTVMADAYPHLHVTAEKLLVSGLCVKLAAPDLPDYCMLLYPELRTIEGVLKSKMSGLGMPVQQPAGFGTYFDKPAAHYILKPQFAATLRPEQINIISTAYTFFNVERHSLFHMETVVDASRMISDMARLMGKATRAWGIIKDLYIV		1.859 ± 0.0024	1.22		1.17	3.31 ± 1.4	5.71	1.2	0.954	3.37	1.41	4.02 ± 2.5
